Residue numbers refer to the chain shown, from its start. Several values for one entry are separate records, joined by “and”; a condition that tells them apart may be missing. Equal entries are not always repeated. Each block holds one binder with its values, some of them ahead of it.
Experiments:
[1] = target: T1, rabbit actin (Cytoskeleton, catalog #AKL95) (rabbit, UniProt P68135 1-377); assay: pointed-end elongation of gelsolin–actin seeds (pyrene–actin) against emerin concentration; gelsolin–actin dimers (10 nM), 2 μM actin, 0 to 2 μM wild-type emerin 1–222; apparent Kd from the reduction of the rate; n = 12; conditions: both partners purified
[2] = target: T1, rabbit actin (Cytoskeleton, catalog …); assay: cell-based or functional assay
[3] = target: T1, rabbit actin (Cytoskeleton, catalog …); assay: depolymerization of actin filaments grown from gelsolin–actin seeds against emerin concentration; filaments from 2 μM actin and gelsolin–actin seeds diluted 10-fold to 0.2 μM actin with 0–2 μM emerin 1–222; apparent Kd; n = 6; conditions: both partners purified
[4] = target: T2, purified actin (F-actin or G-actin; species not told for these experiments) ( (purified chicken and rabbit …, UniProt P68135 1-377); assay: F-actin column (affinity determination); F-actin column used to determine the affinity of F-actin for emerin; n = 8; conditions: both partners purified
[5] = target: T2, purified actin (F-actin or G-actin; …); assay: co-sedimentation; actin polymerized in KMEI buffer, incubated 30 min with recombinant emerin (4 μM in text and methods, 2 μM in the legend), pelleted at 100,000g for 1 h; SDS-PAGE, Coomassie blue; conditions: both partners purified
[6] = target: T1, rabbit actin (Cytoskeleton, catalog …); assay: pyrene–actin polymerization rate against emerin concentration; 2 μM rabbit actin with 5% pyrene–actin; emerin 0.1 to 4.4 μM added just prior to polymerization; R/cR; equilibrium affinity from activity; conditions: both partners purified

Kd [1]: 430 nM and 300 to 500 nM
critical concentration for pointed-end growth (5 nM gelsolin–actin seeds, 625 nM emerin, 16 h at room temperature) [2]: 2.3 to 2.7 fold
rate of depolymerization of filaments grown from gelsolin–actin seeds, diluted to 0.2 μM actin, emerin 0–2 μM [2]: ≤ 8 fold
rate of depolymerization of preformed filaments capped at the barbed end with capping protein (CapZ), diluted into 0.2 μM actin (data not shown) [2]: 10 fold
rate of pyrene–actin polymerization (R/cR), emerin 0.1 to 4.4 μM, 2 μM actin [2]: 4 fold
Kd [3]: 380 nM and 350 to 450 nM
Kd [4]: 480 nM and 300 to 500 nM
stoichiometry N [5]: ~300 actin monomers per emerin molecule
Kd [6]: 420 nM
B1: wild-type emerin (residues 1–222), the full nucleoplasmic domain (domain or fragment)
chain: MDNYADLSDTELTTLLRRYNIPHGPVVGSTRRLYEKKIFEYETQRRRLSPPSSSAASSYSFSDLNSTRGDADMYDLPKKEDALLYQSKGYNDDYYEESYFTTRTYGEPESAGPSRAVRQSVTSFPDADAFHHQVHDDDLLSSSEEECKDRERPMYGRDSAYQSITHYRPVSASRSSLDLSYYPTSSSTSFMSSSSSSSSWLTRRAIRPENRAPGAGLGQDRQ
notes: emerin, residues 1–222, the entire nucleoplasmic domain, lacking the transmembrane domain; also called emr; WT; source: expressed in bacteria and purified

rate of pyrene–actin polymerization, 1 μM mutant, 2.0 μM G-actin, against wild-type emerin [2]: ~50 % of wild-type emerin
B2: emerin (residues 1–222) alanine substitution mutant m196 (domain or fragment)
chain: B1 chain with S196A, S197A
